Four sequences from the supplement of paper PMC5998384 can be followed below.

Data set [1] deals with HeLa Kyoto. In words: solubility change mitosis vs G1/S (difference of NP-40 vs SDS log2 ratios) (log2 ratio difference); higher = more soluble in mitosis.
For data set [2], the system named is HeLa Kyoto. In words: thermal stability score vs G1/S (z-score of summed log2 fold changes over temperatures); higher = more thermally stable than in G1/S.
The subject of data set [3] is HeLa Kyoto. In words: solubility in G1/S (NP-40 vs SDS abundance) (log2 ratio); higher = more soluble. The settings on record: cell cycle stage: G1/S.
Data set [4] relates to HeLa Kyoto. In words: melting temperature (median over replicates), in situ; higher = more thermally stable.
Where [5] appears, read: cell cycle stage: early G1 (4.5 h after nocodazole release).
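Wherever melting temperature (median over replicates), in situ is given: HeLa Kyoto cells synchronized by double thymidine or nocodazole block, proteins quantified by TMT10plex mass spectrometry, three independent biological replicates.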
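Wherever solubility change mitosis vs G1/S (difference of NP-40 vs SDS log2 ratios) is given: synchronized HeLa Kyoto cells (double thymidine block for G1/S, nocodazole release for mitosis), protein amounts in NP-40 versus SDS lysates quantified by mass spectrometry, three biological replicates.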
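Wherever solubility in G1/S (NP-40 vs SDS abundance) is given: HeLa Kyoto cells arrested at G1/S by double thymidine block, proteins quantified by TMT10plex mass spectrometry in mild NP-40 versus SDS extracts, three biological replicates.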
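Wherever thermal stability score vs G1/S (z-score of summed log2 fold changes over temperatures) is given: synchronized HeLa Kyoto cells, proteins quantified by TMT10plex mass spectrometry, three biological replicates, mitosis taken 0.5 h after nocodazole release, G1/S directly after double thymidine block.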

Regarding “MADTTPNGPQGAGAVQFMMTNKLDTAMWLSRLFTVYCSALFVLPLLGLHEAASFYQRALLANALTSALRLHQRLPHFQLSRAFLAQALLEDSCHYLLYSLIFVNSYPVTMSIFPVLLFSLLHAATYTKKVLDARGSNSLPLLRSVLDKLSANQQNILKFIACNEIFLMPATVFMLFSGQGSLLQPFIYYRFLTLRYSSRRNPYCRTLFNELRIVVEHIIMKPACPLFVRRLCLQSIAFISRLAPTVP [TMEM33]”, the “solubility change mitosis (log2)” value in data set [1] is -0.177. The thermal stability score worked out at 2.25 in data set [2] (setting [5]) and 2.45 in data set [2] (cell cycle stage: mitosis). The “solubility in G1/S (log2)” value in data set [3] was determined as 0.0522. Also, the melting temperature is 55 °C in data set [4] (cell cycle stage: G1/S) and 53.5 °C in data set [4] (cell cycle stage: mitosis).

As for “MAEAHQAVAFQFTVTPDGIDLRLSHEALRQIYLSGLHSWKKKFIRFKNGIITGVYPASPSSWLIVVVGVMTTMYAKIDPSLGIIAKINRTLETANCMSSQTKNVVSGVLFGTGLWVALIVTMRYSLKVLLSYHGWMFTEHGKMSRATKIWMGMVKIFSGRKPMLYSFQTSLPRLPVPAVKDTVNRYLQSVRPLMKEEDFKRMTALAQDFAVGLGPRLQWYLKLKSWWATNYVSDWWEEYIYLRGRGPLMVNSNYYAMDLLYILPTHIQAARAGNAIHAILLYRRKLDREEIKPIRLLGSTIPLCSAQWERMFNTSRIPGEETDTIQHMRDSKHIVVYHRGRYFKVWLYHDGRLLKPREMEQQMQRILDNTSEPQPGEARLAALTAGDRVPWARCRQAYFGRGKNKQSLDAVEKAAFFVTLDETEEGYRSEDPDTSMDSYAKSLLHGRCYDRWFDKSFTFVVFKNGKMGLNAEHSWADAPIVAHLWEYVMSIDSLQLGYAEDGHCKGDINPNIPYPTRLQWDIPGECQEVIETSLNTANLLANDVDFHSFPFVAFGKGIIKKCRTSPDAFVQLALQLAHYKDMGKFCLTYEASMTRLFREGRTETVRSCTTESCDFVRAMVDPAQTVEQRLKLFKLASEKHQHMYRLAMTGSGIDRHLFCLYVVSKYLAVESPFLKEVLSEPWRLSTSQTPQQQVELFDLENNPEYVSSGGGFGPVADDGYGVSYILVGENLINFHISSKFSCPETDSHRFGRHLKEAMTDIITLFGLSSNSKK [CPT1A]”, the “solubility change mitosis (log2)” value in data set [1] was -0.0899. For the same sequence, the thermal stability score in data set [2] (setting [5]) is 5.3; in data set [2] (cell cycle stage: mitosis), 4.57. Moreover, the “solubility in G1/S (log2)” value in data set [3] is -0.177. Further, the melting temperature in data set [4] (cell cycle stage: G1/S) worked out at 50 °C; in data set [4] (cell cycle stage: mitosis) it was 50.1 °C.

For the sequence “MAEAPPVSGTFKFNTDAAEFIPQEKKNSGLNCGTQRRLDSNRIGRRNYSSPPPCHLSRQVPYDEISAVHQHSYHPSGSKPKSQQTSFQSSPCNKSPKSHGLQNQPWQKLRNEKHHIRVKKAQSLAEQTSDTAGLESSTRSESGTDLREHSPSESEKEVVGADPRGAKPKKATQFVYSYGRGPKVKGKLKCEWSNRTTPKPEDAGPESTKPVGVFHPDSSEASSRKGVLDGYGARRNEQRRYPQKRPPWEVEGARPRPGRNPPKQEGHRHTNAGHRNNMGPIPKDDLNERPAKSTCDSENLAVINKSSRRVDQEKCTVRRQDPQVVSPFSRGKQNHVLKNVETHTGSLIEQLTTEKYECMVCCELVRVTAPVWSCQSCYHVFHLNCIKKWARSPASQADGQSGWRCPACQNVSAHVPNTYTCFCGKVKNPEWSRNEIPHSCGEVCRKKQPGQDCPHSCNLLCHPGPCPPCPAFMTKTCECGRTRHTVRCGQAVSVHCSNPCENILNCGQHQCAELCHGGQCQPCQIILNQVCYCGSTSRDVLCGTDVGKSDGFGDFSCLKICGKDLKCGNHTCSQVCHPQPCQQCPRLPQLVRCCPCGQTPLSQLLELGSSSRKTCMDPVPSCGKVCGKPLPCGSLDFIHTCEKLCHEGDCGPCSRTSVISCRCSFRTKELPCTSLKSEDATFMCDKRCNKKRLCGRHKCNEICCVDKEHKCPLICGRKLRCGLHRCEEPCHRGNCQTCWQASFDELTCHCGASVIYPPVPCGTRPPECTQTCARVHECDHPVYHSCHSEEKCPPCTFLTQKWCMGKHEFRSNIPCHLVDISCGLPCSATLPCGMHKCQRLCHKGECLVDEPCKQPCTTPRADCGHPCMAPCHTSSPCPVTACKAKVELQCECGRRKEMVICSEASSTYQRIAAISMASKITDMQLGGSVEISKLITKKEVHQARLECDEECSALERKKRLAEAFHISEDSDPFNIRSSGSKFSDSLKEDARKDLKFVSDVEKEMETLVEAVNKGKNSKKSHSFPPMNRDHRRIIHDLAQVYGLESVSYDSEPKRNVVVTAIRGKSVCPPTTLTGVLEREMQARPPPPIPHHRHQSDKNPGSSNLQKITKEPIIDYFDVQD [NFX1]”, the “solubility change mitosis (log2)” value in data set [1] came out at 0.35. For the same sequence, the thermal stability score turned out to be 1.02 in data set [2] (setting [5]) and 0.0215 in data set [2] (cell cycle stage: mitosis). Besides, the “solubility in G1/S (log2)” value in data set [3] was -0.786. Moreover, the melting temperature is 50.5 °C in data set [4] (cell cycle stage: G1/S) and 50.3 °C in data set [4] (cell cycle stage: mitosis).

On to “MAEARKRRELLPLIYHHLLRAGYVRAAREVKEQSGQKCFLAQPVTLLDIYTHWQQTSELGRKRKAEEDAALQAKKTRVSDPISTSESSEEEEEAEAETAKATPRLASTNSSVLGADLPSSMKEKAKAETEKAGKTGNSMPHPATGKTVANLLSGKSPRKSAEPSANTTLVSETEEEGSVPAFGAAAKPGMVSAGQADSSSEDTSSSSDETDVEGKPSVKPAQVKASSVSTKESPARKAAPAPGKVGDVTPQVKGGALPPAKRAKKPEEESESSEEGSESEEEAPAGTRSQVKASEKILQVRAASAPAKGTPGKGATPAPPGKAGAVASQTKAGKPEEDSESSSEESSDSEEETPAAKALLQAKASGKTSQVGAASAPAKESPRKGAAPAPPGKTGPAVAKAQAGKREEDSQSSSEESDSEEEAPAQAKPSGKAPQVRAASAPAKESPRKGAAPAPPRKTGPAAAQVQVGKQEEDSRSSSEESDSDREALAAMNAAQVKPLGKSPQVKPASTMGMGPLGKGAGPVPPGKVGPATPSAQVGKWEEDSESSSEESSDSSDGEVPTAVAPAQEKSLGNILQAKPTSSPAKGPPQKAGPVAVQVKAEKPMDNSESSEESSDSADSEEAPAAMTAAQAKPALKIPQTKACPKKTNTTASAKVAPVRVGTQAPRKAGTATSPAGSSPAVAGGTQRPAEDSSSSEESDSEEEKTGLAVTVGQAKSVGKGLQVKAASVPVKGSLGQGTAPVLPGKTGPTVTQVKAEKQEDSESSEEESDSEEAAASPAQVKTSVKKTQAKANPAAARAPSAKGTISAPGKVVTAAAQAKQRSPSKVKPPVRNPQNSTVLARGPASVPSVGKAVATAAQAQTGPEEDSGSSEEESDSEEEAETLAQVKPSGKTHQIRAALAPAKESPRKGAAPTPPGKTGPSAAQAGKQDDSGSSSEESDSDGEAPAAVTSAQVIKPPLIFVDPNRSPAGPAATPAQAQAASTPRKARASESTARSSSSESEDEDVIPATQCLTPGIRTNVVTMPTAHPRIAPKASMAGASSSKESSRISDGKKQEGPATQVSKKNPASLPLTQAALKVLAQKASEAQPPVARTQPSSGVDSAVGTLPATSPQSTSVQAKGTNKLRKPKLPEVQQATKAPESSDDSEDSSDSSSGSEEDGEGPQGAKSAHTLGPTPSRTETLVEETAAESSEDDVVAPSQSLLSGYMTPGLTPANSQASKATPKLDSSPSVSSTLAAKDDPDGKQEAKPQQAAGMLSPKTGGKEAASGTTPQKSRKPKKGAGNPQASTLALQSNITQCLLGQPWPLNEAQVQASVVKVLTELLEQERKKVVDTTKESSRKGWESRKRKLSGDQPAARTPRSKKKKKLGAGEGGEASVSPEKTSTTSKGKAKRDKASGDVKEKKGKGSLGSQGAKDEPEEELQKGMGTVEGGDQSNPKSKKEKKKSDKRKKDKEKKEKKKKAKKASTKDSESPSQKKKKKKKKTAEQTV [TCOF1]”, for which the “solubility change mitosis (log2)” value in data set [1] came out at 0.223. The thermal stability score was -3.49 in data set [2] (setting [5]) and -1.37 in data set [2] (cell cycle stage: mitosis). Moreover, the “solubility in G1/S (log2)” value in data set [3] was -0.327. In addition, the figures for the melting temperature in data set [4] (cell cycle stage: G1/S) and in data set [4] (cell cycle stage: mitosis) were 53.2 °C and 52.9 °C, respectively.
